# Measured values: paper PMC6542541, “Broadly neutralizing antibodies from an individual that naturally cleared multiple hepatitis C virus infections uncover molecular determinants for E2 targeting and vaccine design” (PLoS Pathogens, 2019)
# B1: HMAb HC-11 (antibody, V domains shown)
# VH: EVQLVESGAEVKKPGSSVKVSCKASGATFSSFIFSWVRQAPGQGPEWMGGIIPMFGTAKYAPRLQGRVTITADESTSTAYMDLSSLRFEDTAVYYCAMEVPGFCRGGSCSGYMDVWGKGTLVTVSP
# VL: AAVLTQSPGTLSLSPGERATLSCRASHSVSSSNLAWYQQKPGQAPRLLMYGASRRATGIPDRFSGSGSGTDFTLTISRLEPEDFAVYYCQQYGSSPITFGQGTRLDIK
# notes: germline IGHV1-69, 92% nucleotide identity; heavy chain CDR3; germline kappa 3-20, 96% nucleotide identity; light chain CDR3; also called domain B HMAb
# Tests used:
# [1] = target: HMAb 212.1.1; assay: global alanine scanning epitope mapping; details: antibody at 2 μg/ml
# [2] = target: HMAb HC-11; assay: global alanine scanning epitope mapping; details: antibody at 1 μg/ml
# [3] = target: HC84.26; assay: global alanine scanning epitope mapping; details: antibody at 1 μg/ml
# [4] = target: HMAb CBH-7; assay: global alanine scanning epitope mapping; details: antibody at 1 μg/ml
# [5] = target: HC-1; assay: global alanine scanning epitope mapping; details: antibody at 1 μg/ml
# [6] = target: HMAb CBH-5; assay: global alanine scanning epitope mapping; details: antibody at 1 μg/ml
# [7] = target: H77C 1a recombinant E1E2 (hepatitis C virus genotype 1a, isolate H77C) (UniProt P27958)
# [8] = target: H77C 1a recombinant E1E2 (hepatitis C virus genotype 1a, isolate H77C) (UniProt P27958); remark: listed apart in the source
# [9] = target: T1, complex of Hepatitis C virus genotype 1a P27958 (hepatitis C virus genotype 1a, isolate …, UniProt P27958); assay: ELISA; blocking of E2 binding to CD81-LEL: HMAb at 10 μg/ml pre-incubated with H77C 1a E1E2 lysate (1 μg/ml E2) for 20 min at 4°C, then added to CD81-LEL wells; details: one partner purified
# T1 construct: envelope glycoprotein E1, cut product of the HCV polyprotein, genotype 1a isolate H77C; envelope glycoprotein E2, cut product of the HCV polyprotein, genotype 1a isolate H77C; residue numbers count on the H77C polyprotein; also called wt 1a H77C E1E2; 1a H77C E2
Molecule,percent of parent [1] [% WT],percent of parent [2] [% WT],percent of parent [3] [% WT],percent of parent [4] [% WT],percent of parent [5] [% WT],percent of parent [6] [% WT],% neutralization of 1a H77C HCVpp at 20 μg/ml [7] [%],% neutralization of H77 (1a) Core-NS2 HCVcc at 25 μg/ml (FFU reduction) [8] [%],IC50 of neutralization of H77 (1a) Core-NS2 HCVcc (FFU reduction) [8] [µg/mL],binding result [9]
H77C 1a recombinant E1E2 (from UniProt P27958) A426G,8,23,88,253,35,0,–,–,–,–
H77C 1a recombinant E1E2 (from UniProt P27958) A439G,84,–,108,–,83,53,–,–,–,–
H77C 1a recombinant E1E2 (from UniProt P27958) C429A,0,0,24,157,0,2,–,–,–,–
H77C 1a recombinant E1E2 (from UniProt P27958) D533A,99,66,93,77,73,54,–,–,–,–
H77C 1a recombinant E1E2 (from UniProt P27958) D535A,6,1,–,116,14,0,–,–,–,–
H77C 1a recombinant E1E2 (from UniProt P27958) E431A,147,64,105,101,97,224,–,–,–,–
H77C 1a recombinant E1E2 (from UniProt P27958) E637A,–,202,–,145,246,40,–,–,–,–
H77C 1a recombinant E1E2 (from UniProt P27958) F442A,148,1,–,113,–,1,–,–,–,–
H77C 1a recombinant E1E2 (from UniProt P27958) G436A,103,0,–,78,73,11,–,–,–,–
H77C 1a recombinant E1E2 (from UniProt P27958) G440A,83,–,82,77,73,86,–,–,–,–
H77C 1a recombinant E1E2 (from UniProt P27958) G530A,9,3,71,–,14,76,–,–,–,–
H77C 1a recombinant E1E2 (from UniProt P27958) G547A,57,36,–,28,–,30,–,–,–,–
H77C 1a recombinant E1E2 (from UniProt P27958) H638A,26,27,34,42,47,6,–,–,–,–
H77C 1a recombinant E1E2 (from UniProt P27958) L427A,3,26,100,370,51,6,–,–,–,–
H77C 1a recombinant E1E2 (from UniProt P27958) L433A,2,103,122,103,97,128,–,–,–,–
H77C 1a recombinant E1E2 (from UniProt P27958) L438A,87,1,122,89,77,4,–,–,–,–
H77C 1a recombinant E1E2 (from UniProt P27958) L441A,92,75,12,100,85,0,–,–,–,–
H77C 1a recombinant E1E2 (from UniProt P27958) L546A,139,92,100,112,100,92,–,–,–,–
H77C 1a recombinant E1E2 (from UniProt P27958) N428A,15,7,74,134,34,0,–,–,–,–

Molecule,percent of parent [1] [% WT],percent of parent [2] [% WT],percent of parent [3] [% WT],percent of parent [4] [% WT],percent of parent [5] [% WT],percent of parent [6] [% WT],% neutralization of 1a H77C HCVpp at 20 μg/ml [7] [%],% neutralization of H77 (1a) Core-NS2 HCVcc at 25 μg/ml (FFU reduction) [8] [%],IC50 of neutralization of H77 (1a) Core-NS2 HCVcc (FFU reduction) [8] [µg/mL],binding result [9]
H77C 1a recombinant E1E2 (from UniProt P27958) N430A,143,–,85,155,39,–,–,–,–,–
H77C 1a recombinant E1E2 (from UniProt P27958) N434A,18,88,97,–,102,92,–,–,–,–
H77C 1a recombinant E1E2 (from UniProt P27958) N532A,152,71,108,101,82,108,–,–,–,–
H77C 1a recombinant E1E2 (from UniProt P27958) N548A,–,70,85,–,88,51,–,–,–,–
H77C 1a recombinant E1E2 (from UniProt P27958) P544A,72,41,–,39,–,45,–,–,–,–
H77C 1a recombinant E1E2 (from UniProt P27958) P545A,70,42,69,42,78,42,–,–,–,–
H77C 1a recombinant E1E2 (from UniProt P27958) R639A,88,76,87,86,100,48,–,–,–,–
H77C 1a recombinant E1E2 (from UniProt P27958) S424A,41,18,75,163,53,10,–,–,–,–
H77C 1a recombinant E1E2 (from UniProt P27958) S432A,108,57,102,104,–,73,–,–,–,–
H77C 1a recombinant E1E2 (from UniProt P27958) T425A,18,10,69,101,51,1,–,–,–,–
H77C 1a recombinant E1E2 (from UniProt P27958) T435A,86,49,117,89,67,46,–,–,–,–
H77C 1a recombinant E1E2 (from UniProt P27958) T534A,162,83,116,101,88,125,–,–,–,–
H77C 1a recombinant E1E2 (from UniProt P27958) V636A,77,63,72,–,89,34,–,–,–,–
H77C 1a recombinant E1E2 (from UniProt P27958) W437A,58,0,98,–,67,3,–,–,–,–
H77C 1a recombinant E1E2 (from UniProt P27958) W529A,9,23,122,187,0,35,–,–,–,–
H77C 1a recombinant E1E2 (from UniProt P27958) W549A,66,50,–,5,–,46,–,–,–,–
H77C 1a recombinant E1E2 (from UniProt P27958) Y443A,158,1,52,82,87,0,–,–,–,–
HMAb 212.1.1 (antibody),–,–,–,–,–,–,89,41,36,–
B1,–,–,–,–,–,–,–,–,–,binds
